Source: article doi:10.1101/2024.04.30.591959

Molecular target: T1, human propionyl-CoA carboxylase β subunit (human (endogenous in Expi 293F)), P05166
T1 chain: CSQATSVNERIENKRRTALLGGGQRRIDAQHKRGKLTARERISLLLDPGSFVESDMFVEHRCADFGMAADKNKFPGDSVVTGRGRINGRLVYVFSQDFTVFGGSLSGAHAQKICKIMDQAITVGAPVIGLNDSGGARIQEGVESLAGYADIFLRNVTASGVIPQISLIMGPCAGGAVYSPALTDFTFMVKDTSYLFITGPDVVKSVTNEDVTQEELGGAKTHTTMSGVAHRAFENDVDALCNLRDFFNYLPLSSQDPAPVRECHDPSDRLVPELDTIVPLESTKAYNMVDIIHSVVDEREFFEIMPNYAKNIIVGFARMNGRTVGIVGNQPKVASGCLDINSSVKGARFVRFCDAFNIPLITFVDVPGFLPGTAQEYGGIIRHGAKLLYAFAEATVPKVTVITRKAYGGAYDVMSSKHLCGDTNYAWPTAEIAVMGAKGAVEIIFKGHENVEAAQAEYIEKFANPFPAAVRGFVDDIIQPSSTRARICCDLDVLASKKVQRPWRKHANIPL
Experiment: cryo-EM structure
Settings: remark: other sources report otherwise

B1: human propionyl-CoA carboxylase β subunit, P05166 29-539 (natural protein)
chain: T1 chain
- stoichiometry N: 6
